# Source: the supplement of paper PMC9112550, “Optimization of the antimicrobial peptide Bac7 by deep mutational scanning” (BMC Biology, 2022)
# Tested on: Escherichia coli TOP10
# Experiment: shrunken log2 fold change of peptide-encoding DNA abundance (4.5 h post-induction vs induction); higher = less antimicrobial activity (less host growth inhibition)
# Details: time post-induction: 4.5 h; library: site-saturation at positions 5, 18, 19, 20
# 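Also: peptides expressed intracellularly from a pBAD plasmid library in pooled LB shake-flask culture, induced with 0.3% L-arabinose, DNA abundance read by NGS, three biological replicates, DESeq2 with apeglm shrinkage.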
row,Sequence,shrunken log2 fold change
1,RRIRFRPPRLPRPRPRPGYYPRP,-0.195
2,RRIRNRPPRLPRPRPRPQYFPRP,-0.00973
3,RRIRERPPRLPRPRPRPEIYPRP,0.0872
4,RRIRMRPPRLPRPRPRPNAHPRP,8.74e-05
5,RRIRNRPPRLPRPRPRPVYQPRP,-0.00185
6,RRIRMRPPRLPRPRPRPTERPRP,0.582
7,RRIRGRPPRLPRPRPRPKVQPRP,1.06
8,RRIRGRPPRLPRPRPRPVRGPRP,0.866
9,RRIRGRPPRLPRPRPRPSSRPRP,0.372
10,RRIRHRPPRLPRPRPRPCTWPRP,-0.0924
11,RRIRQRPPRLPRPRPRPPGFPRP,0.0259
12,RRIRCRPPRLPRPRPRPYWGPRP,-0.427
13,RRIRFRPPRLPRPRPRPYTGPRP,-0.0357
14,RRIRIRPPRLPRPRPRPFVEPRP,-0.37
15,RRIRHRPPRLPRPRPRPSWPPRP,-0.00928
16,RRIRPRPPRLPRPRPRPLYEPRP,-0.303
17,RRIRQRPPRLPRPRPRPMRNPRP,-0.0579
18,RRIRMRPPRLPRPRPRPRHFPRP,0.00681
19,RRIRHRPPRLPRPRPRPVDWPRP,0.15
20,RRIRFRPPRLPRPRPRPNDPPRP,-0.226
21,RRIRIRPPRLPRPRPRPMCAPRP,-0.127
22,RRIRIRPPRLPRPRPRPKIHPRP,-0.464
23,RRIRSRPPRLPRPRPRPARNPRP,0.611
24,RRIRYRPPRLPRPRPRPDVAPRP,0.105
25,RRIRVRPPRLPRPRPRPNHYPRP,-0.501

row,Sequence,shrunken log2 fold change
1,RRIRLRPPRLPRPRPRPKWRPRP,0.39
2,RRIRFRPPRLPRPRPRPDLLPRP,0.118
3,RRIRERPPRLPRPRPRPHMDPRP,-1.21
4,RRIRSRPPRLPRPRPRPQYGPRP,-0.118
5,RRIRARPPRLPRPRPRPYTWPRP,-0.428
6,RRIRARPPRLPRPRPRPCFNPRP,0.0639
7,RRIRIRPPRLPRPRPRPSLSPRP,-0.692
8,RRIRQRPPRLPRPRPRPGMHPRP,-0.0509
9,RRIRLRPPRLPRPRPRPNDCPRP,0.0412
10,RRIRNRPPRLPRPRPRPGYMPRP,-0.281
11,RRIRQRPPRLPRPRPRPAWVPRP,0.0382
12,RRIRGRPPRLPRPRPRPGDTPRP,0.616
13,RRIRDRPPRLPRPRPRPCDKPRP,-0.206
14,RRIRERPPRLPRPRPRPHFSPRP,0.061
15,RRIRIRPPRLPRPRPRPLYEPRP,-0.649
16,RRIRYRPPRLPRPRPRPSPVPRP,-0.612
17,RRIRPRPPRLPRPRPRPEHMPRP,-0.0558
18,RRIRMRPPRLPRPRPRPNGWPRP,0.175
19,RRIRCRPPRLPRPRPRPDTCPRP,-0.0965
20,RRIRRRPPRLPRPRPRPIKLPRP,-0.128
21,RRIRARPPRLPRPRPRPQLWPRP,0.569
22,RRIRFRPPRLPRPRPRPGGTPRP,-0.0188
23,RRIRQRPPRLPRPRPRPLLKPRP,-0.321
24,RRIRCRPPRLPRPRPRPHPIPRP,-0.229
25,RRIRPRPPRLPRPRPRPPMVPRP,0.0188

row,Sequence,shrunken log2 fold change
1,RRIRQRPPRLPRPRPRPAALPRP,0.247
2,RRIRLRPPRLPRPRPRPPMFPRP,-0.242
3,RRIRCRPPRLPRPRPRPEQMPRP,0.45
4,RRIRNRPPRLPRPRPRPNFNPRP,-0.734
5,RRIRHRPPRLPRPRPRPSPYPRP,-0.703
6,RRIRHRPPRLPRPRPRPIGYPRP,0.0062
7,RRIRNRPPRLPRPRPRPSGYPRP,0.00359
8,RRIRERPPRLPRPRPRPQPLPRP,-0.202
9,RRIRKRPPRLPRPRPRPMPAPRP,0.15
10,RRIRRRPPRLPRPRPRPTPEPRP,0.572
11,RRIRVRPPRLPRPRPRPWGRPRP,0.0354
12,RRIRPRPPRLPRPRPRPRPRPRP,0.744
13,RRIRLRPPRLPRPRPRPERCPRP,0.00413
14,RRIRDRPPRLPRPRPRPPGYPRP,0.0954
15,RRIRYRPPRLPRPRPRPVWFPRP,-0.129
16,RRIRGRPPRLPRPRPRPGFYPRP,0.512
17,RRIRERPPRLPRPRPRPYLQPRP,-0.138
18,RRIRSRPPRLPRPRPRPHHSPRP,-0.464
19,RRIRFRPPRLPRPRPRPMVGPRP,-0.225
20,RRIRKRPPRLPRPRPRPAESPRP,0.563
21,RRIRTRPPRLPRPRPRPPCYPRP,-0.139
22,RRIRGRPPRLPRPRPRPFFGPRP,0.188
23,RRIRYRPPRLPRPRPRPTGFPRP,-0.0281
24,RRIRYRPPRLPRPRPRPQLWPRP,0.0782
25,RRIRDRPPRLPRPRPRPRISPRP,0.0345

row,Sequence,shrunken log2 fold change
1,RRIRDRPPRLPRPRPRPSHFPRP,-0.0338
2,RRIRMRPPRLPRPRPRPLQCPRP,-0.0663
3,RRIRGRPPRLPRPRPRPFGNPRP,0.0288
4,RRIRWRPPRLPRPRPRPTWNPRP,0.306
5,RRIRCRPPRLPRPRPRPSWDPRP,-0.134
6,RRIRLRPPRLPRPRPRPMEWPRP,-0.0102
7,RRIRGRPPRLPRPRPRPRGDPRP,0.481
8,RRIRFRPPRLPRPRPRPFKTPRP,-0.164
9,RRIRERPPRLPRPRPRPHPRPRP,0.278
10,RRIRHRPPRLPRPRPRPCHIPRP,-0.454
11,RRIRHRPPRLPRPRPRPIEKPRP,-0.00776
12,RRIRNRPPRLPRPRPRPINPPRP,-0.796
13,RRIRRRPPRLPRPRPRPVCMPRP,0.32
14,RRIRERPPRLPRPRPRPGCNPRP,-0.0442
15,RRIRKRPPRLPRPRPRPWSVPRP,-0.0212
16,RRIRIRPPRLPRPRPRPDDVPRP,-0.00433
17,RRIRWRPPRLPRPRPRPKICPRP,0.357
18,RRIRNRPPRLPRPRPRPYIIPRP,-0.156
19,RRIRRRPPRLPRPRPRPMAFPRP,0.024
20,RRIRTRPPRLPRPRPRPPPCPRP,0.292
21,RRIRWRPPRLPRPRPRPKDFPRP,0.0488
22,RRIRRRPPRLPRPRPRPMSIPRP,-0.465
23,RRIRDRPPRLPRPRPRPPSRPRP,-0.0515
24,RRIRVRPPRLPRPRPRPFWRPRP,0.0595
25,RRIRLRPPRLPRPRPRPQKLPRP,-0.17

row,Sequence,shrunken log2 fold change
1,RRIRTRPPRLPRPRPRPRTLPRP,-0.121
2,RRIRMRPPRLPRPRPRPTQWPRP,0.479
3,RRIRCRPPRLPRPRPRPGGDPRP,0.142
4,RRIRLRPPRLPRPRPRPCWHPRP,-0.0884
5,RRIRHRPPRLPRPRPRPVLLPRP,-0.0673
6,RRIRRRPPRLPRPRPRPKFPPRP,0.361
7,RRIRERPPRLPRPRPRPFTQPRP,-0.299
8,RRIRERPPRLPRPRPRPSNQPRP,-0.841
9,RRIRRRPPRLPRPRPRPCIGPRP,-0.328
10,RRIRTRPPRLPRPRPRPTNFPRP,-0.0921
11,RRIRARPPRLPRPRPRPNAPPRP,0.467
12,RRIRVRPPRLPRPRPRPCSDPRP,-0.0601
13,RRIRKRPPRLPRPRPRPTRIPRP,0.312
14,RRIRKRPPRLPRPRPRPSGSPRP,-0.0809
15,RRIRDRPPRLPRPRPRPIWAPRP,-0.0982
16,RRIRGRPPRLPRPRPRPVQAPRP,0.891
17,RRIRSRPPRLPRPRPRPYGCPRP,-0.248
18,RRIRVRPPRLPRPRPRPSWMPRP,-0.139
19,RRIRTRPPRLPRPRPRPKFKPRP,-0.225
20,RRIRYRPPRLPRPRPRPHIRPRP,-0.206
21,RRIRKRPPRLPRPRPRPPSMPRP,0.669
22,RRIRKRPPRLPRPRPRPMCFPRP,0.265
23,RRIRLRPPRLPRPRPRPNGWPRP,0.044
24,RRIRYRPPRLPRPRPRPTANPRP,-0.602
25,RRIRQRPPRLPRPRPRPSDMPRP,0.0447

row,Sequence,shrunken log2 fold change
1,RRIRDRPPRLPRPRPRPVGEPRP,0.55
2,RRIRPRPPRLPRPRPRPRLLPRP,0.321
3,RRIRSRPPRLPRPRPRPMTTPRP,0.572
4,RRIRERPPRLPRPRPRPRRTPRP,0.176
5,RRIRRRPPRLPRPRPRPQSAPRP,0.123
6,RRIRIRPPRLPRPRPRPDILPRP,-0.354
7,RRIRLRPPRLPRPRPRPASRPRP,0.00832
8,RRIRQRPPRLPRPRPRPVHGPRP,-0.0392
9,RRIRERPPRLPRPRPRPYFLPRP,-0.437
10,RRIRMRPPRLPRPRPRPWSMPRP,-0.156
11,RRIRGRPPRLPRPRPRPQIMPRP,0.173
12,RRIRYRPPRLPRPRPRPEAPPRP,-0.0405
13,RRIRCRPPRLPRPRPRPKGSPRP,0.189
14,RRIRQRPPRLPRPRPRPTKHPRP,-0.167
15,RRIRSRPPRLPRPRPRPHRWPRP,0.0724
16,RRIRKRPPRLPRPRPRPMEYPRP,-0.00192
17,RRIRHRPPRLPRPRPRPENDPRP,0.00527
18,RRIRKRPPRLPRPRPRPWVTPRP,0.000269
19,RRIRGRPPRLPRPRPRPAWDPRP,0.76
20,RRIRWRPPRLPRPRPRPTFIPRP,-0.417
21,RRIRNRPPRLPRPRPRPSILPRP,-0.151
22,RRIRCRPPRLPRPRPRPVQGPRP,-0.0182
23,RRIRIRPPRLPRPRPRPIWSPRP,0.025
24,RRIRKRPPRLPRPRPRPKGAPRP,0.217
25,RRIRYRPPRLPRPRPRPARPPRP,0.943
